{"source": "the DeepSol protein solubility set"}
{"assay": "soluble on expression in E. coli; label from the status in PepcDB or PDB records"}
{"sequence": "MGSDKIHHHHHHMKVVAVGGGTGLSTLLKGLKNIDSFEITAVVSVTDEGGSSGKLRKELNVPPPGDVRNNIVALAKDEDLLAKLMSYRFSEGSFKGHSLGNLIIAALTKIEGSFSEAIRILERVLAIKGRVLPVSEDHARLVARFEDGEEVIGETNIVRKGGKIVEVRLDRPIDALPEVLEAIERADIIIFGPGSLYTSIITNVLVNGVKDAIKKSKAKKIYVCNLMTQPGETTGYRVSDHVKELERYLEQSVDFVLVNTRKPSEEVLERYRKEGSDFVEIDAENIQNTILAEPFLVEIVDPSDGQRKIRHDSVKLADVIERISRW", "soluble on expression in E. coli": "not soluble"}
{"sequence": "MGSDKIHHHHHHMPTILEHLAALFDKDMRAVLSNPRAISMIANPSARVQMAAVRRDRSVICFIEKPTEKVQLTAVRNAPHNIHFITSPSERVQLTVIGIRPSYVGFIPNPTEKVQLKAVEKRPECIFLLQKPAEKVQLTAVLKDPRYLSAIREPTEKVQLAAVQKNPECIRHIAEPTEKVQHMAVQRSPDIFRQIRQPEESVRLAAVQAKGENIRYVSAPSEAVQLAAVRNDPMNIRYIENPTEKVQSVVLNADRDAAPFISSPTEEIKRLAMEMYGLRLENAAGKEAAAARTSETSGNSGKKATEGVAKKPSAKQVKEAVEKLDSEIREINREYFQATYEAQYSDNAAERESEISAAGKNREKKLVKAYEKFNSAAVPERKECNVGKIVKELRKERVAVENMKAGEWHSLMKGKAVQPPLVSGASGAAGKGSALMLARTPAGYALKAAGTINQASRQANAEM", "soluble on expression in E. coli": "not soluble"}
{"sequence": "MHHHHHHSSGVDLGTENLYFQSMCAAQMPPLAHIFRGTFVHSTWTCPMEVLRDHLLGVSDSGKIVFLEEASQQEKLAKEWCFKPCEIRELSHHEFFMPGLVDTHIHASQYSFAGSSIDLPLLEWLTKYTFPAEHRFQNIDFAEEVYTRVVRRTLKNGTTTACYFATIHTDSSLLLADITDKFGQRAFVGKVCMDLNDTFPEYKETTEESIKETERFVSEMLQKNYSRVKPIVTPRFSLSCSETLMGELGNIAKTRDLHIQSHISENRDEVEAVKNLYPSYKNYTSVYDKNNLLTNKTVMAHGCYLSAEELNVFHERGASIAHCPNSNLSLSSGFLNVLEVLKHEVKIGLGTDVAGGYSYSMLDAIRRAVMVSNILLINKVNEKSLTLKEVFRLATLGGSQALGLDGEIGNFEVGKEFDAILINPKASDSPIDLFYGDFFGDISEAVIQKFLYLGDDRNIEEVYVGGKQVVPFSSSV", "soluble on expression in E. coli": "soluble"}
{"sequence": "MRGSHHHHHHTDPALRADLSLLKALSEADAIASSEQEVRQILLEEADRLQKEVRFDGLGSVLIRLNESTGPKVMICAHMDEVGFMVRSISREGAIDVLPVGNVRMAARQLQPVRITTREECKIPGLLDGDRQGNDVSAMRVDIGARSYDEVMQAGIRPGDRVTFDTTFQVLPHQRVMGKAFDDRLGCYLLVTLLRELHDAELPAEVWLVASSSEEVGLRGGQTATRAVSPDVAIVLDTACWAKNFDYGAANHRQIGNGPMLVLSDKSLIAPPKLTAWVETVAAEIGVPLQADMFSNGGTDGGAVHLTGTGVPTVVMGPATRHGHCAASIADCRDILQMQQLLSALIQRLTRETVVQLTDFRGLCGR", "soluble on expression in E. coli": "soluble"}
{"sequence": "MGSDKIHHHHHHMQATMTDKNTRELLLDAATTLFAEQGIAATTMAEIAASVGVNPAMIHYYFKTRDSLLDTIIEERIGRIIDMIWEPVTGEEDDPLIMVRDLVNRIVNTCETMLWLPSLWIREIVNEGGALREKMLNNIPIDKMNKFSAKIAEGQKQGVINSGIDSRLLIGSIIGLTMLPLATAKLRDQIPTMKGLSSEDIVCHVTALLFTGLTNPSNSDDIKKQRT", "soluble on expression in E. coli": "not soluble"}
{"sequence": "MAHHHHHHMTGSDEEFEIGDILDIKKKKNGFIYLVNWKGYSDDENTWEPESNLLHLTTFKKKMELLKSAYLNKVDTTQNDGNLLKNHLTSPSSLQEETGTTNITKTKGRNPLISKKKGNKKGVTNKLEAKKLLSTNSDNSQKMSDDEYNESIKQETIENPHDSSLLNVEDVYSVRIKNRKMEFLASLKNASPQWVEESNIRRTGHLNIKVNDFKKYIRRKKTSKGNRIVIKNLHNVGDELYISVIHNINNKEIHSLYPSKVIEYIYPQELLNFLLSRLRYRTA", "soluble on expression in E. coli": "soluble"}
{"sequence": "MGSDKIHHHHHHMMFKQVQQDFMDYIRDPNQPLPKGIEPRRMKIYRDLFFNNLDGFVSSAFPVLKSLYASDDWQLLVQAFFVNHDCQSPIFMDIAAEFLQFLQTEYQTKESDPGFMLELAHYEWLELVVAVAQEDEQLMTLSQDEVKTAKMCLNSTARVAQYHFDVQHISVDYQPVEPTPQGQFFCVYRDNADEVAFLQLSPLSAQVLAYLEQSQQSTLLELCHWLAGLYPNMATEQLNQGAFGLLAQLADKGIVKTRA", "soluble on expression in E. coli": "not soluble"}
{"sequence": "MSLNANVVIAGPGTGKTTSISQKYLELVQSGVDPNDILCITFTNKAAENMRSRIIKALERSGTQIDLSVINVYTFHSFANSAIRRYGYRGIVNQNFLRKIIFDYLIRNSVFNYEREYLISRIVPQLENIIRYLGSFGIDRIENPEETAASLREIFKKRREEKKIKEDLEEITAIFIHLSKIMDEYRNAKEARGVIDYNDMIIKFLELEKKPHFKYVLVDELQDASDLQARLIKSVADDIYAVGDRKQAIFGFQGGGFGNFSNHFPDAHVNYLLTDHRNSEAVLNYAREFFLKNTKYPDQYRTELDQLKASKARGGSVEVVSGEEEAVLDLLKRFPEGKVGILARRNDQVIKISEILDSNGMRYASSALSAASDRAKKDVIAFLKMIIYGDMQSVIDALFTPFSGLQISEAYDIKESLISGNTSLQNYDLLNNLRRTYSAPGINGLIDMFEKLIIPIALAFDQRYFLTVERIYKNLREYLDFYGNEDRSDLINYLEICDDEVQEIDADERISVLTVHKAKGLEFDHVIYLPKAKKDEKMSAVDLVAEQMIRLKTEGHHHHHH", "soluble on expression in E. coli": "soluble"}
{"sequence": "MGSDKIHHHHHHMAKIHMVLQGKGGVGKSMIAATIAQYKAGKGQKPLCIDTDPVNATFEGYKALNVRRLNIMDGDEINTRNFDALVEMIASAEGDVIIDNGASSFVPLSHYLISNQVPALLQDMGHELVVHTVVTGGQALVDTVSGFAQLASQFPAECLFVVWLNPYWGPIEHEGKGFEQLKAYTTNKGRVSAIIQIPALKEETYGRDFAEMLQDRRTFDEALADSALTIMTRQRLKIVKTQLFAQLENAAVL", "soluble on expression in E. coli": "not soluble"}
{"sequence": "MKIVFLECSVELVPRSLWSHPQVLKSARRYGIEPGDLLLDKSLHYNAMAELPAKWKRGRPDILHVALLTTTDSPLYNEGLLRIYFQVYDGRLFEVGTGVRVPKNYERFRGLVAQLLKTERVPPGEGEALIRLHSRSLAEFVEREGRFILMWEKGSPTTTTYVAARALSTGLPIGVGCFPRGEFKRSTLRKASEAYSIMGGAPLKTWGVASRIVYALERLKSPFTLEHHHHHH", "soluble on expression in E. coli": "soluble"}
{"sequence": "MRILAFPYTHTLSHLSRVLAVALELRRMGHEVVFAGESAKVSFVSQQGFDVVPIHEPDPEMLFGNIRSGKLRFVEDAELLQMLTADIEVIRSLKPDLVLSDGRFSAPLSTHLTNVRHAAIVNASSTEYRALPYVPFFDWMPPWLISRDAMIWKALVRLNLFLEMKLFDNVMKVFKRLSRELNTNRTVTATNCLTGKDITLLADIPEYFPSRNLPASYHYVGPLTWKSVLAPPAWWPLDIPSSPLVYVTMGTTGVSEFFSKLGPSLSTSFFSSIVTTGGQSSELKPMPGKVYVESYLDGDLVMERSDVVICHGGNGTIYQALSHGKPVIGIPTIPDQKFNMRRVEAMGFGKSLDLKQFLEKPSLLADTVKQVLSDHSFRNSAQKIQAVLKSYNAATTSAKILIDSILLEHHHHHH", "soluble on expression in E. coli": "not soluble"}
{"sequence": "MAHHHHHHMKQSIVTPLRSPLHCATPLPLTFFPSYRRWLPVVRHASRRPHGVFEQRRRGRPHGSTKRVLRHCDAARRVAVVQQKLHVRHVPAIGTKKPTQSHIGSHKAAVAFHRHDSTFLNGVPPNHHTHRRSPRRQFVLRKQTKRFHQEGAVAPLGLVKNGPRPQRTAGITERVYSISLRVTFQKKVSLAAKPVHQLSIDALHALRGVLRRDTSVRKNNPLAHHSHRMLKNVQAVGTLWAKGRRVRLFSSKGTHNIRVYVVEDAQDIHQLMVAHKKNKFPARLHCLPLQGGKKVVNLVGVEPAISDVAKLDNYRRTSNPAILGIRNICQLQYLATAKNIAMNVSKRNQAGLSAADVYRLHVQKRHKICRSAKK", "soluble on expression in E. coli": "not soluble"}
{"sequence": "MSLGTQEDVLSLISGGFDSGVSSYLHIKRGSKVHYCFFNLGGPAHEIGVKQTAYYLWQKYGSSAKVRFIAIDFAPVVAEILEKIDDGQMGVVLKRMFMRTAGMVAEKFGIQALVTGEALGQVSSQTLTNLRHIDNVTDTLILRPLINWDKEDIIRLAREIGTEDFAKTMPEFCGVISKSPTVKAVKEKLEEEEAKFDFALLDQVVYNARQIDIRDIGKESLEKAPEVELVNSAEEGNAVVLDIRSPDEEDESPLEIVGVEVKHLPFYKLATQFGDLDQSKTYLLYCSRGVMSRLQALYLQEQGFNNVKVYREGHHHHHH", "soluble on expression in E. coli": "not soluble"}
